B1: TIA1 (parent)
chain: TYECRCIGEEKEMWNFGEKYARF

Variants of: B1
Assay: protein stability index of a GFP-peptide fusion (GPS, HEK-293T) (PSI 1-6); higher = more stable
Conditions: c terminus: native
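Further: lentivirally expressed fusions sorted by FACS into six bins by GFP to DsRed ratio, PSI derived from sequencing read proportions per bin multiplied by bin number.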

| Variant | protein stability index |
| --- | --- |
| E12Y | 1.3 |
| E12V | 1.59 |
| E12P | 2.35 |
| E12R | 1.42 |
| E12N | 2.08 |
| E12Q | 2.3 |
| E12D | 1.91 |
| E12C | 2.08 |
| E12L | 2.33 |
| E12G | 2.71 |
| E12W | 2.5 |
| E12T | 2.19 |
| E12I | 1.39 |
| E12K | 1.4 |
| E12H | 2.03 |
| E12S | 2.21 |
| E12F | 3.56 |
| E12M | 1.88 |
| E9R | 1.88 |
| E9D | 2.28 |
| E9H | 1.74 |
| E9N | 2.29 |
| E9L | 3.02 |
| E9S | 1.84 |

| Variant | protein stability index |
| --- | --- |
| E9P | 1.82 |
| E9K | 2.49 |
| E9I | 1.89 |
| E9Y | 1.85 |
| E9Q | 2.46 |
| E9A | 1.85 |
| E9F | 1.81 |
| E9M | 1.33 |
| E9G | 2.09 |
| E9C | 2.1 |
| E9W | 1.74 |
| E9T | 1.61 |
| E9V | 1.92 |
| C6K | 3.64 |
| C6S | 3.8 |
| C6R | 3.38 |
| C6H | 3.75 |
| C6I | 2.89 |
| C6T | 3.1 |
| C6Y | 2.14 |
| C6M | 1.84 |
| C6L | 1.56 |
| C6N | 3.44 |
| C6P | 3.72 |

| Variant | protein stability index |
| --- | --- |
| C6W | 1.53 |
| C6Q | 3.9 |
| E10G | 1.86 |
| E10N | 1.83 |
| E10W | 2.52 |
| E10Q | 1.71 |
| E10C | 2.25 |
| E10V | 1.58 |
| E10P | 2.12 |
| E10A | 2.85 |
| E10T | 1.43 |
| E10D | 1.99 |
| E10L | 2.25 |
| E10I | 2.56 |
| E10S | 2.23 |
| E10H | 2.49 |
| G8S | 1.98 |
| G8Y | 2.37 |
| G8T | 2.47 |
| G8K | 2.18 |
| G8C | 1.6 |
| G8R | 3.32 |
| G8I | 2.04 |
| G8H | 1.46 |

| Variant | protein stability index |
| --- | --- |
| G8P | 2.14 |
| G8D | 1.58 |
| G8F | 2.01 |
| G8N | 2.28 |
| G8A | 2.54 |
| G8V | 2.65 |
| M13A | 1.74 |
| M13Q | 1.71 |
| M13K | 1.87 |
| M13C | 2.14 |
| M13H | 2.24 |
| M13P | 2.19 |
| M13N | 2.31 |
| M13T | 2.18 |
| M13Y | 1.56 |
| M13W | 3.09 |
| M13F | 1.23 |
| M13G | 2.61 |
| M13V | 2.03 |
| M13R | 2.11 |
| M13L | 2.48 |
| M13I | 2.07 |
| M13D | 2.19 |
| M13S | 1.98 |

| Variant | protein stability index |
| --- | --- |
| F16A | 2.43 |
| K11Y | 2.17 |
| K11G | 2.62 |
| K11W | 1.83 |
| K11Q | 1.84 |
| K11F | 1.53 |
| K11S | 1.98 |
| K11H | 1.78 |
| K11T | 3.28 |
| K11R | 1.57 |
| K11I | 1.3 |
| K11C | 3.31 |
| K11M | 1.88 |
| K11A | 3.42 |
| K11L | 1.5 |
| K11P | 2.02 |
| K11D | 2.38 |
| K11V | 2.57 |
| K11N | 2.69 |
| K11E | 2.54 |
| I7G | 3 |
| I7V | 1.76 |
| I7Y | 2.3 |
| I7Q | 3.02 |

| Variant | protein stability index |
| --- | --- |
| I7T | 2.98 |
| I7H | 3.01 |
| I7L | 1.98 |
| I7D | 2.87 |
| I7R | 1.8 |
| I7K | 2.18 |
| I7M | 1.72 |
| I7F | 2.12 |
| I7E | 3.42 |
| I7S | 2.16 |
| I7P | 3.87 |
| I7N | 2.66 |
| N15E | 2.37 |
| N15Y | 1.56 |
| N15K | 1.86 |
| N15M | 1.43 |
| N15F | 2.46 |
| N15C | 1.96 |
| N15D | 2.04 |
| N15V | 2.3 |
| N15P | 2.25 |
| N15H | 2.33 |
| N15L | 2.37 |
| N15I | 2.02 |

| Variant | protein stability index |
| --- | --- |
| N15G | 2 |
| N15Q | 1.42 |
| N15W | 2.77 |
| N15T | 1.92 |
| N15S | 2.13 |
| W14F | 2.39 |
| W14A | 2.14 |
| W14K | 1.6 |
| W14D | 2.61 |
| W14I | 2.28 |
| W14Q | 2.24 |
| W14G | 2.88 |
| W14H | 2.49 |
| W14C | 2.17 |
| W14N | 2.1 |
| W14L | 1.64 |
| W14M | 2.27 |
| W14E | 2.51 |
| W14S | 2.98 |
| W14T | 2.22 |
| W14P | 2.31 |
| W14V | 2.34 |
| W14Y | 2.65 |
